Reference: patent US20150293026A1, “Automated system for tissue histomorphometry” (priority 2010, published 2015)

Test system: mineralizing bone surface and GFP labeled osteoblast surface of long bones (femur)
Test: Automated bone histomorphometry of femur trabecula in PTH treated GFP reporter mice
Type: in vivo
Conditions: for AC measurements CL (common surface area of GFP marked osteoblast and AC stained label/bone surface area) / AC measurements NCL (surface area of AC stained label only/bone surface area) / AC measurements TL (total AC stained label area/bone surface area) / GFP measurements CL / GFP measurements NCL / GFP measurements TL: femur trabecula, day 7, mean
Method: The combination of image analysis techniques (registration, segmentation, smoothing and thresh-holding) is amenable to automating histomorphometry analysis. We have used long bones (femur) of PTH treated, skeletally mature mice (8˜9 month old) whose transgenic expression of Col3.6GFP or Col2.3GFP is expected to be uniformly low. Each study had 2 groups of treatment experiments, one that is PTH treated and one that is vehicle (0.001 N HCl containing 1 mg/ml BSA) treated. Each treated study was terminated 1 day after 2 days, 3 days, and 7 days dose of treatment has been administered. A single red fluorochrome label (AC, alizarin complexone, 30 mg/Kg IP) has been administered concurrently with the final PTH dose approximately 24 hours prior to end of each study. The experimental quantification includes GFP labeled osteoblast surface, mineralizing bone surface and total bone surface.
We need to measure both the AC stained label areas and GFP marked osteoblast areas that are commonly related to the same bone surface region. Often, the distance between the AC stained labels and the GFP marked osteoblast are not uniform, and sometimes they may be located far away. Our approach is to find the reference bone surfaces first, and then move the related AC stained labels and GFP marked osteoblast onto the reference bone surfaces using morphological transformation. FIG. 7(b) is the transformed image of FIG. 7(a). The red and green colors show, respectively, the AC stained labels and the GFP marked osteoblast on the bone surface. The yellow color is introduced to represent the common areas of AC stained labels and GFP marked osteoblast. From this projected image, we are able to calculate the ratios of the AC stained labels and GFP marked osteoblast of interest.
Here PTH treated and vehicle treated studies use poBCol3.6GFP-Tpz and pOBCol2.3GFP-Emd, respectively, where the former is control and the latter is test. The measurement follows the bone volume measurement guideline presented in [Parfitt et al., 1987]. In Table 3, the following notations are used and each measurement is the percentage of 2D perimeter measurement over the total 2D bone surface area (Red=AC measurements, Cyan=GFP measurements).
TL=total AC stained label area/bone surface area; CL=common surface area of the GFP marked osteoblast and AC stained label/bone surface area; NCL=surface area of the AC stained label only/bone surface area; TG=total surface area of the green GFP marked osteoblast/bone surface area; GL=common surface area of the GFP marked osteoblast and AC stained label/bone surface area; NGL=surface area of the GFP marked osteoblast only/bone surface area.

B1: PTH: PTH given to skeletally mature transgenic GFP reporter mice for 2, 3 or 7 days; anticipated bone-forming effect (peptide, UniProt P01270 32-115, looked up)
Parathyroid hormone: SVSEIQLMHNLGKHLNSMERVEWLRKKLQDVHNFVALGAPLAPRDAGSQRPRKKEDNVLVESHEKSLGEADKADVNVLTKAKSQ
modifications: Parathyroid hormone
In the case of B1, the “AC measurements CL (common surface area of GFP marked osteoblast and AC stained label/bone surface area)” value (Col 2.3-Emd mice) is reported as 3.82%, the “AC measurements NCL (surface area of AC stained label only/bone surface area)” value (Col 2.3-Emd mice) is reported as 12.65% and the “AC measurements TL (total AC stained label area/bone surface area)” value (Col 2.3-Emd mice) is reported as 16.48%. For the same molecule, the “GFP measurements CL” value (Col 2.3-Emd mice) was 3.82%, the “GFP measurements NCL” value (Col 2.3-Emd mice) was 8.00% and the “GFP measurements TL” value (Col 2.3-Emd mice) was 11.83%. The “AC measurements CL (common surface area of GFP marked osteoblast and AC stained label/bone surface area)” value (Col 3.6-Tpz mice) was 5.47%, the “AC measurements NCL (surface area of AC stained label only/bone surface area)” value (Col 3.6-Tpz mice) was 25.48% and the “AC measurements TL (total AC stained label area/bone surface area)” value (Col 3.6-Tpz mice) was 31.23%. The “GFP measurements CL” value (Col 3.6-Tpz mice) was 5.74%, the “GFP measurements NCL” value (Col 3.6-Tpz mice) was 4.24% and the “GFP measurements TL” value (Col 3.6-Tpz mice) was 9.99%. For the same molecule, the “calcified bone areas (TL), PTH treated case compared with vehicle treated case” value (day 7, in words) was “more calcified bone areas (TL)” and the “number of GFP marked osteoblast (TG), PTH treated case compared with vehicle treated case” value (day 7, in words) was “more”.
